# Reference: patent US6265535A, “Peptides and peptide analogues designed from binding sites of tumor necrosis factor receptor superfamily and their uses” (The Trustees of the University of Pennsylvania, priority 1997, dated 2001)
# Bridge positions count the residues as written; N and C are the ends. Ends that are not written are not given here.
# Tests used:
# [1] = target: T1, TNF-α binding to TNF-R p55 expressed on U937 cells (Homo sapiens, UniProt P01375); assay: Flow cytometry (FACS) of TNF-α binding to its cognate receptor on U937 cells, detected with anti-TNF-R antibody htr-9; format: cell-based; conditions: FIG. 6
# T1 construct: endogenous in cells; host or cells: U937 (human leukemia cell line)
# Excerpt: FIG. 5. […] 1=U937 cells stained with fluorescein-conjugated secondary antibody. 2=U937 cells stained with an anti-TNF receptor antibody (htr-9) and secondary antibody. 3=U937 cells stained with anti-TNF-R antibody in the presence of TNF-α and secondary antibody.
# FIG. 6. […] The results represent the means from two independent experiments.
# A human leukemia cell line, U937, was maintained in RPMI-1640 medium supplemented with 10% FCS. In order to quantitate the binding of TNF-α to its cognate receptor expressed on U937 cells, 1×10^5 cells were re-suspended in PBS containing 0.5% BSA and 0.05% NaN3 (binding buffer). […] Then, 50 μl of an anti-TNF receptor antibody at 3 μg/ml in binding buffer were added to the cells for 1 hr. at 4° C. The cells were washed in binding buffer and stained with 50 μl (10 μg/ml) of fluorescein-conjugated goat ant-mouse IgG secondary antibody (GIBCO BRL, Gaithersburg, Md.) for 30 min. at 4° C. in the dark. Following washing in binding buffer, the cells were analyzed using FACScan flow cytometer (Becton Dickinson). The gates were set on the live cell population, and the degree of inhibition of TNF-α/cell binding by peptides was calculated on the basis of mean values of each histogram.
# L929 cells = assay: Cytotoxicity assay: inhibition of TNF-α-induced cytolysis of L929 cells (MTT); format: cell-based, murine; conditions: FIG. 7
# Procedure: FIG. 7. Inhibition of TNF-α-induced cytolysis of L929 cells by peptides derived from TNF-R. […] A murine fibroblast cell line, L929, was maintained in Dulbecco's modified Eagle's medium supplemented with 10% FCS, and the medium was replaced with serum free AIM-V medium (GIBCO BRL) immediately before the cells were used for the cytotoxicity assay. L929 cells were seeded at a density of 2×10^5 cells/ml in 96-well microtiter plates, and incubated for hr. at 37° C. under 5% CO2 in air. […] Immunol. Methods 119:203). Briefly, 10 μl of a 10 mg/ml solution of MTT were added to each well for 2 hr. at 37° C., and the color of the formazan product was developed by an overnight incubation at 37° C. with 100 μl of extraction buffer (20% SDS in 50% DMF, pH 4.7). The optical density of colored formazan was measured at 600 nm.
# Human recombinant TNF-α [2] = target: T2, Human recombinant TNF-α (human, UniProt P01375); assay: competitive radioreceptor assay, 125I-TNF-α on immobilized TNF-R-IgG
# Human recombinant TNF-α [3] = target: T2, Human recombinant TNF-α; assay: flow cytometry on U937 cells, TNF-α preincubated with peptide, read out with htr-9
# Human recombinant TNF-α [4] = target: T2, Human recombinant TNF-α; assay: competitive radioreceptor assay, dose-response, 125I-TNF-α on immobilized TNF-R-IgG
# T1 sequence (P01375 77-233 limits assumed): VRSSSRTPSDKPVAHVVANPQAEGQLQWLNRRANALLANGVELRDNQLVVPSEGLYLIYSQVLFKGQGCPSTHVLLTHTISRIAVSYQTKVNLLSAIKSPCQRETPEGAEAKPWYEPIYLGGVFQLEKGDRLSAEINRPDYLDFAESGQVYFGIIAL
molecule,measurement,setting,value
"YC WSQNL CY (YCWSQNLCY; disulfide 2-8 (inferred)) [WP9Q, exocyclic peptide from TNF-R loop 1 of domain 3, Gln instead of Glu]",inhibition of TNF-α binding to U937 cells in dose-response assay (in words),[1],inhibited by each peptide in a dose-dependent manner
same,inhibition of TNF-α-induced cytotoxicity of L929 cells (in words),L929 cells,dose-dependent inhibitory activity
same,inhibitory effect on TNF-α-induced cytotoxicity relative to WP9QY,L929 cells,about half of the effects of WP9QY
"CC(C)C[C@@H]1NC(=O)[C@H](Cc2ccc(O)cc2)NC(=O)[C@H](CCC(N)=O)NC(=O)[C@H](CO)NC(=O)[C@H](Cc2c[nH]c3ccccc23)NC(=O)[C@@H](NC(=O)[C@@H](N)Cc2ccc(O)cc2)CSSC[C@@H](C(=O)N[C@@H](Cc2ccc(O)cc2)C(=O)O)NC1=O [WP9QY, YC WSQYL CY]",cells protected against TNF-α-induced apoptosis/cytotoxicity,"L929 cells; peptide at 75 μM, TNF-α 50 pg/ml plus ACT-D 1 μg/ml",~90%
"YC ASENH CY (YCASENHCY; disulfide 2-8 (inferred)) [WP5JY, exocyclic peptide from TNF-R loop 1 of domain 2]",inhibition of TNF-α binding to U937 cells in dose-response assay (in words),[1],inhibited by each peptide in a dose-dependent manner
YCWSQNLCY (disulfide 2-8 (inferred)) [WP9Q],fold activity against the best WP5 peptides,Human recombinant TNF-α [2],2 fold
YCWSQYLCY (disulfide 2-8 (inferred)) [WP9QY],IC50,Human recombinant TNF-α [3],75 µM
same,IC50,Human recombinant TNF-α [4],5 µM
